Targets include HLA A2902 (human); HLA A2302 (human); HLA A3002 (human); HLA A2402 (human); HLA A0202 (human); HLA A0201 (human); HLA A0203 (human); HLA A0206 (human); HLA A6801 (human); HLA A1101 (human); HLA A3101 (human); HLA A0301 (human); HLA A0101 (human).
Holding throughout (experiment): 125I-probe competition, purified HLA
Where [1] appears, read: remark: other sources report otherwise.

Like-named read-outs stand apart in the source and are kept apart here.

What is called IC50 is the concentration needed to halve the response being measured.

Turning to GYNTFYIEF (modifications not checked) [HPV18.E2.168], the 50% inhibitory concentration (IC50) in the experiment with HLA A2902 (human) is 835 nM; in the experiment with HLA A2302 (human), 13 nM; with HLA A3002 (human), 1260 nM.
Regarding VFTFPNPFPF (modifications not checked) [HPV31.E1.565], the IC50 with HLA A2902 (human) came to 603 nM; with HLA A2302 (human), 12 nM; with HLA A2402 (human) it was 17 nM.
As to KLLSKLLCV (modifications not checked) [HPV16.E1.292], the half-maximal inhibitory concentration (IC50) in the experiment with HLA A0202 (human) is 67.7 nM; in the experiment with HLA A0201 (human), 31 nM; in the experiment with HLA A0203 (human) it was 23 nM; in the experiment with HLA A0206 (human) it was 125 nM.
On to YYMTDAGTW (modifications not checked) [HPV18.E2.142], for which the half-inhibitory concentration (IC50) with HLA A2902 (human) came to 3410 nM; in the experiment with HLA A2302 (human), 14 nM; with HLA A3002 (human) it was 2150 nM; with HLA A2402 (human) it was 3.2 nM.
KLTNKGICDL (modifications not checked) [HPV31.E6.90]: the IC50 with HLA A0202 (human) amounted to 440 nM; in the experiment with HLA A0201 (human) it was 205 nM; in the experiment with HLA A0203 (human) it was 585 nM; in the experiment with HLA A0206 (human), 484 nM.
Consider PYLHSRLVVF (modifications not checked) [HPV31.E1.557], for which the IC50 in the experiment with HLA A2902 (human) stood at 4360 nM; with HLA A2302 (human), 2.8 nM; with HLA A3002 (human), 2230 nM; in the experiment with HLA A2402 (human) it was 38.7 nM.
For KQGAMLAVFK (modifications not checked) [HPV18.E1.210], the IC50 with HLA A6801 (human) worked out at 235 nM; in the experiment with HLA A1101 (human), 11 nM; with HLA A3101 (human), 519 nM; with HLA A0301 (human) it was 35 nM.
With VYQFAFKDL (modifications not checked) [HPV45.E6.44], the IC50 with HLA A2302 (human) turned out to be 1.1 nM; with HLA A3002 (human), 165 nM; with HLA A2402 (human), 4 nM.
As for FYSKVSEFRW (modifications not checked) [HPV31.E6.69], the IC50 with HLA A2902 (human) came out at 1780 nM; with HLA A2302 (human), 8.8 nM; with HLA A3002 (human), 1360 nM; in the experiment with HLA A2402 (human), 4.5 nM.
For ILYAHIQCL (modifications not checked) [HPV18.E1.266], the IC50 with HLA A0202 (human) (setting [1]) amounted to 8.5 nM; with HLA A0201 (human) (setting [1]) it was 33 nM; in the experiment with HLA A0203 (human) (setting [1]), 10.2 nM; in the experiment with HLA A0206 (human) (setting [1]), 236 nM.
On to KLLEKLLCI (modifications not checked) [HPV31.E1.272], for which the half-maximal inhibitory concentration (IC50) in the experiment with HLA A0202 (human) worked out at 21 nM; with HLA A0201 (human), 19 nM; in the experiment with HLA A0203 (human), 2.4 nM; with HLA A0206 (human), 51 nM.
Turning to SVYGETLEK (modifications not checked) [HPV45.E6.84], the IC50 was found to be 7.2 nM in the experiment with HLA A6801 (human), 9.5 nM with HLA A1101 (human), 6510 nM in the experiment with HLA A3101 (human) and 21 nM with HLA A0301 (human).
Take AATKYPLLK (modifications not checked) [HPV16.E4.9]: the IC50 in the experiment with HLA A1101 (human) is 20 nM; with HLA A0301 (human), 59 nM.
With VFTFPHAFPF (modifications not checked) [HPV45.E1.578], the half-inhibitory concentration (IC50) with HLA A2902 (human) worked out at 57 nM; with HLA A2302 (human), 15.9 nM; with HLA A2402 (human) it was 90.4 nM.
KSLFGMSLMK (modifications not checked) [HPV16.E1.483]: the IC50 in the experiment with HLA A6801 (human) was 887 nM; with HLA A1101 (human) it was 2 nM; in the experiment with HLA A3101 (human) it was 230 nM; with HLA A0301 (human), 3.9 nM.
Consider SLQDIEITCV (modifications not checked) [HPV18.E6.24], for which the IC50 with HLA A0202 (human) amounted to 25 nM; in the experiment with HLA A0201 (human) it was 153 nM; with HLA A0203 (human), 38 nM; with HLA A0206 (human), 205 nM.
For the molecule SYFGMSFIHF (modifications not checked) [HPV18/45.E1.491], the half-inhibitory concentration (IC50) with HLA A2902 (human) was 62 nM; with HLA A2302 (human), 4.3 nM; with HLA A3002 (human) it was 1540 nM; with HLA A2402 (human) it was 17.5 nM.
Regarding MYVCCHVPL (modifications not checked) [HPV18.E5.14], the figures for the IC50 with HLA A2302 (human), with HLA A3002 (human) and with HLA A2402 (human) were 24 nM, 4720 nM and 15 nM, respectively.
The matching figures for VYGTTLEKL (modifications not checked) [HPV31.E6.83]: 8.2 nM, 1240 nM and 26 nM.
For the molecule RQMNMSQWIK (modifications not checked) [HPV45.E1.411], the half-inhibitory concentration (IC50) with HLA A6801 (human) stood at 2560 nM; with HLA A1101 (human), 11 nM; with HLA A3101 (human), 45 nM; with HLA A0301 (human), 15 nM.
The matching figures for STVSVGTAK (modifications not checked) [HPV18.E2.230]: 10 nM, 6 nM, 1760 nM and 34 nM.
YYITETGIW (modifications not checked) [HPV45.E2.144]: the IC50 came to 2 nM with HLA A2302 (human) and 8.5 nM with HLA A2402 (human).
For VYDFAFRDLCI (modifications not checked) [HPV16.E6.49], in that order: 8.9 nM and 22 nM.
Turning to TVSATQLVK (modifications not checked) [HPV18.E2.211], the IC50 with HLA A6801 (human) was 31 nM; with HLA A1101 (human) it was 4 nM; in the experiment with HLA A3101 (human), 6140 nM; with HLA A0301 (human) it was 7 nM.
Take KSAIVTLTY (modifications not checked) [HPV16.E2.329]: the values for the half-inhibitory concentration (IC50) with HLA A0101 (human) and with HLA A3002 (human) were 9 nM and 6 nM, respectively.
Take QVVPAYNISK (modifications not checked) [HPV18.E2.61]: the IC50 was determined as 8 nM with HLA A6801 (human), 14 nM with HLA A1101 (human), 6660 nM in the experiment with HLA A3101 (human) and 308 nM with HLA A0301 (human).
In the case of VVFIYIPLF (modifications not checked) [HPV31.E5.64], the concentration for half-maximal inhibition (IC50) was found to be 302 nM with HLA A2902 (human), 108 nM with HLA A2302 (human), 268 nM with HLA A3002 (human) and 276 nM with HLA A2402 (human).
Turning to ATTPIIHLK (modifications not checked) [HPV31.E2.291], the IC50 was found to be 2.5 nM in the experiment with HLA A6801 (human), 1.2 nM with HLA A1101 (human), 34 nM with HLA A3101 (human) and 10 nM with HLA A0301 (human).
Turning to ATLQDIVLH (modifications not checked) [HPV18.E7.6], the IC50 came to 11 nM with HLA A1101 (human), 543 nM with HLA A3101 (human) and 211 nM with HLA A0301 (human).
VYVFCFLLPM (modifications not checked) [HPV18.E5.52]: the IC50 stood at 5280 nM with HLA A2902 (human), 57 nM in the experiment with HLA A2302 (human) and 178 nM with HLA A2402 (human).
For the molecule LYGVSFSEL (modifications not checked) [HPV16.E1.214], the IC50 was determined as 7.2 nM with HLA A2302 (human) and 3.1 nM in the experiment with HLA A2402 (human).
